pEC50: −log10 of the molar value.
Legend:
Experiment in all cases: EC50 of free RNA motif oligo competing protein binding to immobilised probe
DAP3 = DAP3 (UniProt P51398)
Outline: (§1)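 HEK293-FT lysate (2.5 mg protein/well) was treated with free RNA oligos (0 nM to 30 μM) for 1 h at 4°C, then with the same oligos on NHS-Sepharose beads for 30 min at 4°C. Bound proteins were quantified by label-free LC-MS/MS relative to the control. EC50 came from a four-parameter log-logistic fit, and Kd is EC50 times a protein-dependent depletion factor.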

PARP12 = target: T1, PARP12 (UniProt Q9H0J9)
T1 sequence: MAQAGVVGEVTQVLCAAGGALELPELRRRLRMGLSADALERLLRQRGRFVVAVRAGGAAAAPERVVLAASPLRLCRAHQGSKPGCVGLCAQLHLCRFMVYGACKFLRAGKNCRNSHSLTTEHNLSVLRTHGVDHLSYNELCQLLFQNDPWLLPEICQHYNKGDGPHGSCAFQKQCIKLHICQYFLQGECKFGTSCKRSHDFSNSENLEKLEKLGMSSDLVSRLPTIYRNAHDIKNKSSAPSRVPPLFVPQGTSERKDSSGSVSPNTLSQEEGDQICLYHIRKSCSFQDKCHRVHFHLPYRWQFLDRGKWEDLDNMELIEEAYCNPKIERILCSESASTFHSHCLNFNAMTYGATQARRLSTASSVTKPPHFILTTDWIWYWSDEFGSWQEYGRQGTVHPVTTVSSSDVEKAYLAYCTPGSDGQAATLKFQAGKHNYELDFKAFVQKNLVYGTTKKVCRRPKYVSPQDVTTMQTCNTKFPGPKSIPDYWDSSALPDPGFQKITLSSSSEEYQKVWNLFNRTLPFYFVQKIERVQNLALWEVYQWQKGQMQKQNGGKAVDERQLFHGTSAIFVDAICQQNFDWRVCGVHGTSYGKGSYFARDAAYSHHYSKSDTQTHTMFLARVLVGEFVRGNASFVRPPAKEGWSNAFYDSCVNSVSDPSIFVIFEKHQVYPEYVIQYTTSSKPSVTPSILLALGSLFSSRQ
Outline: as §1

PTBP3 = PTBP3 (UniProt O95758)
Outline: as §1

SYMPK = target: T2, SYMPK (UniProt Q92797)
T2 sequence: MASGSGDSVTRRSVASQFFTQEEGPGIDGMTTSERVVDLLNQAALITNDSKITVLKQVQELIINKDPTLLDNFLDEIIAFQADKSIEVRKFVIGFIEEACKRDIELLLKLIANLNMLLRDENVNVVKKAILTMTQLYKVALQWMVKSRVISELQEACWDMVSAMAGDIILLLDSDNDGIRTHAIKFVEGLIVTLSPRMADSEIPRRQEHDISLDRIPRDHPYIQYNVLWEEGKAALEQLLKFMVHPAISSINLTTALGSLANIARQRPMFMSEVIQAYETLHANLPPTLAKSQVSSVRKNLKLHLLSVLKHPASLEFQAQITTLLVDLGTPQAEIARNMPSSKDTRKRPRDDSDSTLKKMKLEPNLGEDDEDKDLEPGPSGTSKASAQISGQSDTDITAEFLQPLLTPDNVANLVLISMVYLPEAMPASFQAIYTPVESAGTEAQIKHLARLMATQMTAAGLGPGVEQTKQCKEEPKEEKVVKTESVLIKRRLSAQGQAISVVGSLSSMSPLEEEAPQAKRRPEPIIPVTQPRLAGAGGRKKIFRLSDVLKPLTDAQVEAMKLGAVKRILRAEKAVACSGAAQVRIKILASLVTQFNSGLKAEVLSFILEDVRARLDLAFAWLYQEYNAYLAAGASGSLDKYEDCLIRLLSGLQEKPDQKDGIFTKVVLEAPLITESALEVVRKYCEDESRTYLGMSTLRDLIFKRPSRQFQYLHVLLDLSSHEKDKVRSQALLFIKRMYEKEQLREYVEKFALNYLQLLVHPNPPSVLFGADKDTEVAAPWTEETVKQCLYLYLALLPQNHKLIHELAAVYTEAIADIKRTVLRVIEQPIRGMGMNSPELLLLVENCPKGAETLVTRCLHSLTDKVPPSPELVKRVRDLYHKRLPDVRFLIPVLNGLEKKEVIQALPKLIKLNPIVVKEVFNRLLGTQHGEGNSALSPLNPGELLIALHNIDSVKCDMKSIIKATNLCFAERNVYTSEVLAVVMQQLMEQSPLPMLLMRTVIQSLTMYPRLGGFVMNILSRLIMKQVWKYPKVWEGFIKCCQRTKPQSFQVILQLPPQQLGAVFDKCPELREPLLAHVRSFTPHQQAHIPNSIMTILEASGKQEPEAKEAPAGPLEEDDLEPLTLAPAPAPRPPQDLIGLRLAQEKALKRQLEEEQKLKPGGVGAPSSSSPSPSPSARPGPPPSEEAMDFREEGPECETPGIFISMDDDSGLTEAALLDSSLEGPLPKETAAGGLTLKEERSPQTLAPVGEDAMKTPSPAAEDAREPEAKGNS
Outline: as §1

U2AF2 = U2AF2 (UniProt P26368)
Outline: as §1

MRPS18A = MRPS18A (UniProt Q9NVS2)
Outline: as §1

RPS5 = RPS5 (UniProt P46782)
Outline: as §1

MRPL49 = MRPL49 (UniProt Q13405)
Outline: as §1

HNRNPU = HNRNPU (UniProt Q00839)
Outline: as §1

MRPL14 = MRPL14 (UniProt Q6P1L8)
Outline: as §1

IGF2BP1 = IGF2BP1 (UniProt Q9NZI8)
Outline: as §1

U2AF2, sequence (P26368 whole entry): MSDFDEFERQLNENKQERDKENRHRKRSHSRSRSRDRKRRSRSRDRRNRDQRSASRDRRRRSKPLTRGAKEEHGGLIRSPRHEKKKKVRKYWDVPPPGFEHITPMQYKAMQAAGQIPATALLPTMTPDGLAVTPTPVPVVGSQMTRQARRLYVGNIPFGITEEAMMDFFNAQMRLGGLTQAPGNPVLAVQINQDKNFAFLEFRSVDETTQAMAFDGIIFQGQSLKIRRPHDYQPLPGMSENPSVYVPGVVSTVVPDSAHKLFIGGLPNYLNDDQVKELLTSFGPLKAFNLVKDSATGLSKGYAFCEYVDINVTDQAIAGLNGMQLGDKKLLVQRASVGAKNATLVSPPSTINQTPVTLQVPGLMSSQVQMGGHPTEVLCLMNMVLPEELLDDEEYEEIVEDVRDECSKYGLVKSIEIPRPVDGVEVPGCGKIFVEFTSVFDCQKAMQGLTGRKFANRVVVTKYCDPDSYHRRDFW
PTBP3, sequence (O95758 whole entry): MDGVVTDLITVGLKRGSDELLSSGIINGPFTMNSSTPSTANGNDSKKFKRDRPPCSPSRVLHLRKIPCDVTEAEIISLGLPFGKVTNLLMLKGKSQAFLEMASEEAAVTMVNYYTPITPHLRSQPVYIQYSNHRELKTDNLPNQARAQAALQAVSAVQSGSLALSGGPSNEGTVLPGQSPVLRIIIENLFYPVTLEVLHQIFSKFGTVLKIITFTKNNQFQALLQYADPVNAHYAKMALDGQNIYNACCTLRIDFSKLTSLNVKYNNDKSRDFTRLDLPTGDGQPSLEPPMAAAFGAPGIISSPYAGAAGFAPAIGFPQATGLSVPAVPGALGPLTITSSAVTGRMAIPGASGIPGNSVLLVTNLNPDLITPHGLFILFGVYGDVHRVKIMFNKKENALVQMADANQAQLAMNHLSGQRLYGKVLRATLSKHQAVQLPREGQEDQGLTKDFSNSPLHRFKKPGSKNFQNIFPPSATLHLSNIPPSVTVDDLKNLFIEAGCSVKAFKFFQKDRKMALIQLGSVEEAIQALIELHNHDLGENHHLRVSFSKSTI
IGF2BP1, sequence (Q9NZI8 whole entry): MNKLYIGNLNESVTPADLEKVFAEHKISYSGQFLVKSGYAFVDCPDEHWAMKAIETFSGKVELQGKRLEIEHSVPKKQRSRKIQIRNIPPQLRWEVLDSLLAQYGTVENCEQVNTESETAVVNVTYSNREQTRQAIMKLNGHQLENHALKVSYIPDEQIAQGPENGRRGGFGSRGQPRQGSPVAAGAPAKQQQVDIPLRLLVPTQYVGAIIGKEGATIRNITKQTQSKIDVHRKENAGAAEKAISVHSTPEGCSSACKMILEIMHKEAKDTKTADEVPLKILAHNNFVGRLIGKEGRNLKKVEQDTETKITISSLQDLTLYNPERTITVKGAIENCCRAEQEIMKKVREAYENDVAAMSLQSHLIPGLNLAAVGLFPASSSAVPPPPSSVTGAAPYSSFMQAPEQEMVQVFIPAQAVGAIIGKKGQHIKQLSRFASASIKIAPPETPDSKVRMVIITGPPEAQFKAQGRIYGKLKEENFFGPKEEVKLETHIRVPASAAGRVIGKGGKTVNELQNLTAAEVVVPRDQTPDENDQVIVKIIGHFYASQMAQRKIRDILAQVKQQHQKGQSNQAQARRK
HNRNPU, sequence (Q00839 whole entry): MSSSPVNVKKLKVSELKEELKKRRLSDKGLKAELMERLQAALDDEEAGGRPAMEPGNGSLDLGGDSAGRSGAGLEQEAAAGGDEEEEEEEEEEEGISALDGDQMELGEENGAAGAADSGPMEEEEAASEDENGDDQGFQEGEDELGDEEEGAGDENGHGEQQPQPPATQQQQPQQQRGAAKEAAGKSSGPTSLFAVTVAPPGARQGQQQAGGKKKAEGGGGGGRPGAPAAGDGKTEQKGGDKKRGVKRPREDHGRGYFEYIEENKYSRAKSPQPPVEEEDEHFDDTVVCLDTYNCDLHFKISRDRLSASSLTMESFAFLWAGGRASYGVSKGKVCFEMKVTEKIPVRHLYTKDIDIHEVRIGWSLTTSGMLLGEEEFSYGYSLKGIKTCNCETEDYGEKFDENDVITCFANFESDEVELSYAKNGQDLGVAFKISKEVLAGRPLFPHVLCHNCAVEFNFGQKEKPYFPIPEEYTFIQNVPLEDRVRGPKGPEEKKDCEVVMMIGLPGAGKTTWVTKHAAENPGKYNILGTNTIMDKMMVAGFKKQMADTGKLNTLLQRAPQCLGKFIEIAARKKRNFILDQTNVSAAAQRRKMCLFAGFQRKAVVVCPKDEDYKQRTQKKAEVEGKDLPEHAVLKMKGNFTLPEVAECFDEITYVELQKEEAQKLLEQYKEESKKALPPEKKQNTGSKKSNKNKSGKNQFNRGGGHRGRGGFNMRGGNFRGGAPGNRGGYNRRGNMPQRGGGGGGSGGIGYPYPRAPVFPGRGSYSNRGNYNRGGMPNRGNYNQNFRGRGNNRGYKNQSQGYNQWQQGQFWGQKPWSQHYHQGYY

With UAUUUAU the pEC50 (DAP3) was 7.29.

AAUAAA gave a pEC50 (PARP12) of 4.95, a pEC50 (PTBP3) of 5.16 and a pEC50 (SYMPK) of 6.94. For the same sequence, the pEC50 (U2AF2) was 5.99.

Work on CUGUCCU yielded a pEC50 (MRPS18A) of 6.99, a pEC50 (RPS5) of 6.52 and a pEC50 (MRPL49) of 6.96. For the same sequence, the pEC50 (HNRNPU) was 6.42, the pEC50 (MRPL14) was 6.98 and the pEC50 (IGF2BP1) was 5.43.
